This note sets out measurements from the Human Domainome abundance scans (Beltran et al. 2025).

First the molecules themselves.
B1: Homeobox protein SIX3, residues 212 to 262; numbered along this chain, O95343 (parent)
chain: CFKERTRSLLREWYLQDPYPNPSKKRELAQATGLTPTQVGNWFKNRRQRDR

± gives the uncertainty stated by the source.

In this data set the parent is B1. The data set is described as follows: abundance fitness (aPCA) (normalised: wild type 0, dead -1); higher = more abundant; growth selection in yeast, the domain comes from the species named. As to conditions: Homo sapiens.
As to CFKERTRSLLREWYLQDPYPNPSKKRELAQATGLTPTQVGNWCKNRRQRDR, the abundance fitness was -0.755 ± 0.096.
For the variant CFKERTRSLLREWYLQDPYPNPSKKRELAQATGLTPTQVGNWPKNRRQRDR, the abundance fitness is -0.941 ± 0.14.
In the case of CFKERTRSLLREWYLQDPYPNPSKKRELAQATGLTPTQVGNWEKNRRQRDR it was -0.883 ± 0.16; in that of CFKERTRSLLREWYLQDPYPNPSKKRELAQATGLTPTQVGNPFKNRRQRDR, -1 ± 0.14; in that of CFKERTRSLLREWYLQDPYPNPSKKRELAQATGLTPTQVGNTFKNRRQRDR, -0.461 ± 0.21.
In the case of CFKERTRSLLREWYLQDPYPNPSKKRELAQATGLTPTQVGNQFKNRRQRDR it was -0.854 ± 0.083.
Take CFKERTRSLLREWYLQDPYPNPSKKRELAQATGLTPTQVGNCFKNRRQRDR: the abundance fitness was -0.901 ± 0.36.
Consider CFKERTRSLLREWYLQDPYPNPSKKRELAQATGLTPTQVGNAFKNRRQRDR, for which the abundance fitness is -0.793 ± 0.052.
Consider CFKERTRSLLREWYLQDPYPNPSKKRELAQATGLTPTQVGNFFKNRRQRDR, for which the abundance fitness was -0.764 ± 0.3.
In the case of CFKERTRSLLREWYLQDPYPNPSKKRELAQATGLTPTQVGNKFKNRRQRDR it was -0.871 ± 0.32.
In the case of CFKERTRSLLREWYLQDPYPNPSKKRELAQATGLTPTQVGNGFKNRRQRDR it was -0.85 ± 0.098; in that of CFKERTRSLLREWYLQDPYPNPSKKRELAQATGLTPTQVGNYFKNRRQRDR, -0.398 ± 0.05.
In the case of CFKERTRSLLREWYLQDPYPNPSKKRELAQATGLTPTQVGNSFKNRRQRDR it was -1.06 ± 0.27; in that of CFKERTRSLLREWYLQDPYPNPSKKRELAQATGLTPTQVGNRFKNRRQRDR, -0.933 ± 0.079.
Consider CFKERTRSLLREWYLQDPYPNPSKKRELAQATGLTPTQVGNIFKNRRQRDR, for which the abundance fitness is -0.897 ± 0.42.
In the case of CFKERTRSLLREWYLQDPYPNPSKKRELAQATGLTPTQVGNDFKNRRQRDR it was -0.722 ± 0.29.
In the case of CFKERTRSLLREWYLQDPYPNPSKKRELAQATGLTPTQVGNHFKNRRQRDR it was -0.702 ± 0.34; in that of CFKERTRSLLREWYLQDPYPNPSKKRELAQATGLTPTQVGNVFKNRRQRDR, -0.986 ± 0.078; in that of CFKERTRSLLREWYLQDPYPNPSKKRELAQATGLTPTQVGNEFKNRRQRDR, -0.893 ± 0.098.
On to CFKERTRSLLREWYLQDPYPNPSKKRELAQATGLTPTQVGNWFKNARQRDR, for which the abundance fitness is -0.306 ± 0.091.
CFKERTRSLLREWYLQDPYPNPSKKRELAQATGLTPTQVGNWFKNCRQRDR: the abundance fitness was -0.554 ± 0.16.
On to CFKERTRSLLREWYLQDPYPNPSKKRELAQATGLTPTQVMNWFKNRRQRDR, for which the abundance fitness is -0.621 ± 0.12.
In the case of CFKERTRSLLREWYLQDPYPNPSKKRELAQATGLTPTQVVNWFKNRRQRDR it was -0.6 ± 0.076; in that of CFKERTRSLLREWYLQDPYPNPSKKRELAQATGLTPTQVWNWFKNRRQRDR, -0.81 ± 0.052.
Regarding CFKERTRSLLREWYLQDPYPNPSKKRELAQATGLTPTQVRNWFKNRRQRDR, the abundance fitness turned out to be 0.008 ± 0.048.
In the case of CFKERTRSLLREWYLQDPYPNPSKKRELAQATGLTPTQVLNWFKNRRQRDR it was -0.731 ± 0.078; in that of CFKERTRSLLREWYLQDPYPNPSKKRELAQATGLTPTQVENWFKNRRQRDR, -0.099 ± 0.049; in that of CFKERTRSLLREWYLQDPYPNPSKKRELAQATGLTPTQVINWFKNRRQRDR, -0.247 ± 0.15.
For the variant CFKERTRSLLREWYLQDPYPNPSKKRELAQATGLTPTQVFNWFKNRRQRDR, the abundance fitness was -0.858 ± 0.13.
In the case of CFKERTRSLLREWYLQDPYPNPSKKRELAQATGLTPTQVKNWFKNRRQRDR it was 0.097 ± 0.05.
In the case of CFKERTRSLLREWYLQDPYPNPSKKRELAQATGLTPTQVSNWFKNRRQRDR it was 0.006 ± 0.06; in that of CFKERTRSLLREWYLQDPYPNPSKKRELAQATGLTPTQVYNWFKNRRQRDR, -0.871 ± 0.23.
For CFKERTRSLLREWYLQDPYPNPSKKRELAQATGLTPTQVNNWFKNRRQRDR, the abundance fitness was 0.131 ± 0.099.
In the case of CFKERTRSLLREWYLQDPYPNPSKKRELAQATGLTPTQVDNWFKNRRQRDR it was -0.227 ± 0.062; in that of CFKERTRSLLREWYLQDPYPNPSKKRELAQATGLTPTQVHNWFKNRRQRDR, -0.122 ± 0.11.
Turning to CFKERTRSLLREWYLQDPYPNPSKKRELAQATGLTPTQVTNWFKNRRQRDR, the abundance fitness is -0.183 ± 0.089.
For CFKERTRSLLREWYLQDPYPNPSKKRELAQATGLTPTQVCNWFKNRRQRDR, the abundance fitness was -0.13 ± 0.085.
In the case of CFKERTRSLLREWYLQDPYPNPSKKRELAQATGLTPTQVGCWFKNRRQRDR it was -0.459 ± 0.17.
In the case of CFKERTRSLLREWYLQDPYPNPSKKRELAQATGLTPTQVGDWFKNRRQRDR it was -0.497 ± 0.2.
Turning to CFKERTRSLLREWYLQDPYPNPSKKRELAQATGLTPTQVGGWFKNRRQRDR, the abundance fitness is -0.55 ± 0.12.
Regarding CFKERTRSLLREWYLQDPYPNPSKKRELAQATGLTPTQVGLWFKNRRQRDR, the abundance fitness was -0.516 ± 0.12.
In the case of CFKERTRSLLREWYLQDPYPNPSKKRELAQATGLTPTQVGHWFKNRRQRDR it was -0.168 ± 0.16.
CFKERTRSLLREWYLQDPYPNPSKKRELAQATGLTPTQVGAWFKNRRQRDR: the abundance fitness was -0.496 ± 0.2.
In the case of CFKERTRSLLREWYLQDPYPNPSKKRELAQATGLTPTQVGIWFKNRRQRDR, the abundance fitness was -0.627 ± 0.24.
On to CFKERTRSLLREWYLQDPYPNPSKKRELAQATGLTPTQVGSWFKNRRQRDR, for which the abundance fitness is -0.204 ± 0.1.
In the case of CFKERTRSLLREWYLQDPYPNPSKKRELAQATGLTPTQVGMWFKNRRQRDR it was -0.286 ± 0.12; in that of CFKERTRSLLREWYLQDPYPNPSKKRELAQATGLTPTQVGVWFKNRRQRDR, -0.325 ± 0.12; in that of CFKERTRSLLREWYLQDPYPNPSKKRELAQATGLTPTQVGQWFKNRRQRDR, -0.402 ± 0.12.
On to CFKERTRSLLREWYLQDPYPNPSKKRELAQATGLTPTQVGPWFKNRRQRDR, for which the abundance fitness is -0.614 ± 0.29.
Turning to CFKERTRSLLREWYLQDPYPNPSKKRELAQATGLTPTQVGKWFKNRRQRDR, the abundance fitness was found to be 0.252 ± 0.093.
In the case of CFKERTRSLLREWYLQDPYPNPSKKRELAQATGLTPTQVGRWFKNRRQRDR it was 0.142 ± 0.065.
